How the values were obtained:
[1] = biological target: mAb1 WT (human IgG1 Fc WT) (human, UniProt P01857 = IgG part); experiment: SPR
mAb1 WT-AAA = mAb1 WT-AAA (human, UniProt P01857 = IgG part); experiment: SPR

koff [1]: 0.0994 s⁻¹
koff (mAb1 WT-AAA): 0.105 s⁻¹
B1: TRIM21 PRYSPRY domain (domain or fragment)
chain: GLKKMLRTCAVHITLDPDTANPWLILSEDRRQVRLGDTQQSIPGNEERFDSYPMVLGAQHFHSGKHYWEVDVTGKEAWDLGVCRDSVRRKGHFLLSSKSGFWTIWLWNKQKYEAGTYPQTPLHLQVPPCQVGIFLDYEAGMVSFYNITDHGSLIYSFSECAFTGPLRPFFSPGFNDGGKNTAPLTLCPLNIGSQGSTDY
modifications: biotinylated where it was captured via monovalent streptavidin

Source: article PMC11210195 (2024)
